Laboratory results taken from publication PMC4965137, “Temporal Shift of Circadian-Mediated Gene Expression and Carbon Fixation Contributes to Biomass Heterosis in Maize Hybrids”.

Columns and labels:
Conditions in all cases: protein: recombinant; tags: MBP (pMAL-C2); label: 32P 5' end; blunt
rZmCCA1b [1] = target: T1, rZmCCA1b (Zea mays B73, UniProt K7U156 1-720); assay: EMSA; 25 mM HEPES-KOH pH 7.5, 75 mM KCl, 2.5 mM DTT, 10% glycerol, 1.25 ng poly-dIdC; 20 fmol probe, 0.5-2 pmol protein; 10 min room temperature then 20 min on ice with probe; 5% native PAGE
rZmCCA1a = rZmCCA1a (Zea mays B73, UniProt B6SPA3 129-718); assay: EMSA; 1 pmol protein; 25 mM HEPES-KOH pH 7.5, 75 mM KCl, 2.5 mM DTT, 10% glycerol, 1.25 ng poly-dIdC; 20 fmol probe, 0.5-2 pmol protein; 10 min room temperature then 20 min on ice with probe; 5% native PAGE
rZmCCA1b [2] = target: T1, rZmCCA1b; assay: EMSA; self-competed by 25-100X unlabeled DNA; 25 mM HEPES-KOH pH 7.5, 75 mM KCl, 2.5 mM DTT, 10% glycerol, 1.25 ng poly-dIdC; 20 fmol probe, 0.5-2 pmol protein; 10 min room temperature then 20 min on ice with probe; 5% native PAGE

Sequence of rZmCCA1a (B6SPA3 entry or part of it): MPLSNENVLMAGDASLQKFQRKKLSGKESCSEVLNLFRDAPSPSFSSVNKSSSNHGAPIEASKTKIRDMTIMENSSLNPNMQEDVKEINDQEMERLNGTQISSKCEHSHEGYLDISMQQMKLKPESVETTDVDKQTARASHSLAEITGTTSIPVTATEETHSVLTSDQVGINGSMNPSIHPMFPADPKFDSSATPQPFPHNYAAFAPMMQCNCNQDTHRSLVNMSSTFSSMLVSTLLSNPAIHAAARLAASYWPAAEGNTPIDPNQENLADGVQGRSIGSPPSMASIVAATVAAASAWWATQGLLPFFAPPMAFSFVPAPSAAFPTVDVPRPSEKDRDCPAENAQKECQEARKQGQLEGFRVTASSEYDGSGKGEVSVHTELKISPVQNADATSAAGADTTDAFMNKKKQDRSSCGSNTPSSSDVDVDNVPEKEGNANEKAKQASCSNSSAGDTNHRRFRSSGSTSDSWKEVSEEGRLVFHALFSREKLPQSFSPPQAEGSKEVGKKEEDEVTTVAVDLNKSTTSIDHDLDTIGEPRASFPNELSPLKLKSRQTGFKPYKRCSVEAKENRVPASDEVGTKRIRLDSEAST
T1 sequence (K7U156 entry or part of it): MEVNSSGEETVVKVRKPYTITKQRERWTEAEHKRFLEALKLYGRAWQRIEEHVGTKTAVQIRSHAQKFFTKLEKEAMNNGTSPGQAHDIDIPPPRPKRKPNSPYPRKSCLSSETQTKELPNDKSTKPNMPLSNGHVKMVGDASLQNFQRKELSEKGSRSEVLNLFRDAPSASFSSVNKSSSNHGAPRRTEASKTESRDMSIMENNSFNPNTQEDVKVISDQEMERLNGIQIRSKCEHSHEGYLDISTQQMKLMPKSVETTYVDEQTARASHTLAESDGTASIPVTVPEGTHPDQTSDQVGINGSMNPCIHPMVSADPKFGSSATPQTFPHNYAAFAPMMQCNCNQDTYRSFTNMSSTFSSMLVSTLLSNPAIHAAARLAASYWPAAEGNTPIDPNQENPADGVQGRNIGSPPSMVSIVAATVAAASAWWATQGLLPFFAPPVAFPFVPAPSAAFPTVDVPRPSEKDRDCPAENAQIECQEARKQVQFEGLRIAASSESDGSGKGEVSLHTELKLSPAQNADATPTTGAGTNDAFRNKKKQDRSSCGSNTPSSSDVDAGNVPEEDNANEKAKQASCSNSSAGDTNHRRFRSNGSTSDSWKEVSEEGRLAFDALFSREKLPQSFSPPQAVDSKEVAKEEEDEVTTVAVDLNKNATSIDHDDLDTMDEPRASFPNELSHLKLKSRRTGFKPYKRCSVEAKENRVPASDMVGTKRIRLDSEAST

B1: GRMZM2G033885 promoter probe (dsDNA)
DNA 1: TCAGCACTGAAAAATATCTGAGGTTGAAA
DNA 2: TTTCAACCTCAGATATTTTTCAGTGCTGA
B1: binds (rZmCCA1b [1]).

B2: gi1 promoter probe (dsDNA)
DNA 1: GCATCGCGGAAAAAATCTTTTTCTCGCC
DNA 2: GGCGAGAAAAAGATTTTTTCCGCGATGC
B2: no binding (rZmCCA1a); binds (rZmCCA1b [2]).

B3: ZmPRR59 promoter probe (dsDNA)
DNA 1: CTCTTTAAAAAAAAATCTTCATTTAAGG
DNA 2: CCTTAAATGAAGATTTTTTTTTAAAGAG
B3: no binding (rZmCCA1a); binds (rZmCCA1b [2]).

B4: GRMZM2G129513 promoter probe (dsDNA)
DNA 1: ATTAAATATAAAAATATCTAAATTCATAA
DNA 2: TTATGAATTTAGATATTTTTATATTTAAT
B4: binds (rZmCCA1b [1]).

B5: ZmTOC1a promoter probe (dsDNA)
DNA 1: GGCGAGTTTTAGATATTTTCACCCGCTCC
DNA 2: GGAGCGGGTGAAAATATCTAAAACTCGCC
B5: no binding (rZmCCA1a); binds (rZmCCA1b [2]).
